Measurements as given in paper PMC7474645.

How the values were obtained:
Test in all cases: FRET or BRET
[1] = target: formyl peptide 1 receptor fused to Rluc8 (FPR1) (UniProt P21462)
[2] = target: endothelin A receptor fused to Rluc8 (ETA-Rluc8) (UniProt P25101)
[3] = target: Smoothened fused to Rluc8 (Smo-Rluc8) (UniProt Q99835)
[4] = target: thromboxane A2 receptor fused to Rluc8 (TP-Rluc8) (UniProt P21731)
[5] = target: formyl peptide 2 receptor fused to Rluc8 (FPR2-Rluc8) (UniProt P25090)
Sequence of UniProt P25090 (P25090 whole entry, the tested form may be a part): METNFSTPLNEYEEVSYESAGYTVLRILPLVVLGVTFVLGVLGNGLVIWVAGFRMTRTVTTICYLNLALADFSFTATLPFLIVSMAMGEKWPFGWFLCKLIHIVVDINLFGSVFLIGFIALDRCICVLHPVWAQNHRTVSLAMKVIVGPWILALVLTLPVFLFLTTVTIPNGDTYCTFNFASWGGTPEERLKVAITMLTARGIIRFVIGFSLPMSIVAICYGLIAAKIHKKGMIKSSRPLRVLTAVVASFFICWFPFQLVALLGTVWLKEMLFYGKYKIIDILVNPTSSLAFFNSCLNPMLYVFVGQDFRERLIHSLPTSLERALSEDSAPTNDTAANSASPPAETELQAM

Sequence of UniProt P25101 (P25101 21-427): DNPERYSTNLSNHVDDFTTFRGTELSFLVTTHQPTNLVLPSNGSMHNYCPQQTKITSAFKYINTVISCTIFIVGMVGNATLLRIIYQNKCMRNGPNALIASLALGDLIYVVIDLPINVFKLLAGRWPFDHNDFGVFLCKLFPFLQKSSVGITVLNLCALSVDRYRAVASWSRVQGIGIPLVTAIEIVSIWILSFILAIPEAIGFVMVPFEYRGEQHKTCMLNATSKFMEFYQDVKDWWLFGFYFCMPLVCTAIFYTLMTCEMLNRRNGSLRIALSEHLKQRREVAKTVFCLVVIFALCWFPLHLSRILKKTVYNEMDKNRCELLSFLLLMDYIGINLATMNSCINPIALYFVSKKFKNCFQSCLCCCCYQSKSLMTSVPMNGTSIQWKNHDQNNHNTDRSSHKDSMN
Sequence of UniProt P21731 (P21731 whole entry, the tested form may be a part): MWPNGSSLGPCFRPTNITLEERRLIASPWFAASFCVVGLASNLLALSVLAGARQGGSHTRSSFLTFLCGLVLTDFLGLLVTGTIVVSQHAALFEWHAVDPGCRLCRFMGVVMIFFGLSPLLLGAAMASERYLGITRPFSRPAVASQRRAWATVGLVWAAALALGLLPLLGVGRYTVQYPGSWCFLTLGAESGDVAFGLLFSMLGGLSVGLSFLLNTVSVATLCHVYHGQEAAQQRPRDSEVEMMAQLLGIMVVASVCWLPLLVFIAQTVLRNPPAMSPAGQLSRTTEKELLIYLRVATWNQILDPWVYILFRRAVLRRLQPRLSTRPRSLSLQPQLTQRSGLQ
Sequence of UniProt Q99835 (Q99835 28-787): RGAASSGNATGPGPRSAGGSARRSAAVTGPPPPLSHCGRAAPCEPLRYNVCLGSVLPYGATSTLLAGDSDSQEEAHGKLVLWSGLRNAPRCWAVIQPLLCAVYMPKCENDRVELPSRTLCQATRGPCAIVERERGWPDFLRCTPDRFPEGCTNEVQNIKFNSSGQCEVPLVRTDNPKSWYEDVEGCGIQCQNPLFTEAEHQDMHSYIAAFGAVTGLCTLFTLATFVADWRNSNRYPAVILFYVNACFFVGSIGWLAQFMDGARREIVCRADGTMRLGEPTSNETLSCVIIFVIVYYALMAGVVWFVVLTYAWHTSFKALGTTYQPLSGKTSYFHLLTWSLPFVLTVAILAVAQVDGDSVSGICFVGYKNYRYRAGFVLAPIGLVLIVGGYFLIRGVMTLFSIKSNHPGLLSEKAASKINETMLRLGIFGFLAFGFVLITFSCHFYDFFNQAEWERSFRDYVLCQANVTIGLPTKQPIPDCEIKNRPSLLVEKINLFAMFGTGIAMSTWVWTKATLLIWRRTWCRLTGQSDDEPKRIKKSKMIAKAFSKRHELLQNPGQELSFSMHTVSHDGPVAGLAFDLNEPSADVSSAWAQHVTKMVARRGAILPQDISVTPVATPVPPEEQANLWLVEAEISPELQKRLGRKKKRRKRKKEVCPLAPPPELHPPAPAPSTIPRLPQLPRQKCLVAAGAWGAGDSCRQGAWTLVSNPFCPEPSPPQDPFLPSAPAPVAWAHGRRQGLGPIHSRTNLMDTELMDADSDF
Sequence of UniProt P21462 (P21462 whole entry, the tested form may be a part): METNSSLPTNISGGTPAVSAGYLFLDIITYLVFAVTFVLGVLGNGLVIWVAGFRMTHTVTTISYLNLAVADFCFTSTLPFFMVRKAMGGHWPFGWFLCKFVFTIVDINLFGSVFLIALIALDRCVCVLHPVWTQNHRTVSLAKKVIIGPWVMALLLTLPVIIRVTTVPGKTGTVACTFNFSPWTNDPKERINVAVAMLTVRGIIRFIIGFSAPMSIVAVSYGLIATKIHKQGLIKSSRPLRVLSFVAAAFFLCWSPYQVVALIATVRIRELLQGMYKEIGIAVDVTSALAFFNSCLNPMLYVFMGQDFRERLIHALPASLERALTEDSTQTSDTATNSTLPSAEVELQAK

Substance | RGDP (GDP-resistance ratio) [1] | RGDP (GDP-resistance ratio) [2] | RGDP (GDP-resistance ratio) [3] | RGDP (GDP-resistance ratio) [4] | RGDP (GDP-resistance ratio) [5]
G12 heterotrimer, Gα12β1γ2-Venus (from UniProt Q03113;P62873;P59768) (complex) | 0.96 | 0.66 | 1.01 | 0.55 | –
G12 heterotrimer, Gα12β1γ2-Venus (from UniProt Q03113;P62873;P59768) (complex; other documents disagree on this pair) | – | – | – | – | 0.92
G13 heterotrimer, Gα13β1γ2-Venus (from UniProt Q14344;P62873;P59768) (complex) | – | 0.21 | – | 0.18 | –
Gq heterotrimer, Gαqβ1γ2-Venus (from UniProt P50148;P62873;P59768) (complex) | – | 0.29 | – | – | –
